We go through 8 molecules from patent US12365732 (23ANDME, dated 2025).

Experiment [1] deals with T1, hu-CD96 isoform 2 on CHO cells (human, UniProt P40200 22-585).
T1 construct: also called CHO-CD96 (isoform 2); CD96-CHOs
T1 sequence: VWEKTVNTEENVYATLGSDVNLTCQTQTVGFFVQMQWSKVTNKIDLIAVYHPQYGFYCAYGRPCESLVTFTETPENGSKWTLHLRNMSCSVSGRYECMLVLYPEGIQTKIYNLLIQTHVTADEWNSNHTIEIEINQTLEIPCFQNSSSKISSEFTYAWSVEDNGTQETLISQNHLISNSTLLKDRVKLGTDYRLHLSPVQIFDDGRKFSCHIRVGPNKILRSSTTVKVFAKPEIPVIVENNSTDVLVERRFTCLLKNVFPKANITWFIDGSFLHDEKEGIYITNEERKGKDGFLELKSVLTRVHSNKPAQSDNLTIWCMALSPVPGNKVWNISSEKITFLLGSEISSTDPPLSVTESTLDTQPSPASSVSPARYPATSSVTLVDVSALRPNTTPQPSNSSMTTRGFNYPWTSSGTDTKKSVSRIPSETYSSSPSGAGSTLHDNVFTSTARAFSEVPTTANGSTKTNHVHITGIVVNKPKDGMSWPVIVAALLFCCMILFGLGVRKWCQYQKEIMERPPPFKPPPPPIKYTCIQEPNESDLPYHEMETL
The experiment in a line: FACS, Ab 2 nM. The procedure: (§1) Isoform 1 of hu-CD96 (Origene, catalog #RC213845) was transiently expressed in HEK293T cells following standard lipofectamine or Fugene transfection protocol. […] Cells were washed, and binding was detected by incubation with anti-mouse IgG-FITC (Biolegend, catalog #406001) for 20 minutes at 4° C. Cell binding was analyzed by flow cytometry with a CytoFLEX (Beckman Coulter). Binding curves were calculated as a percentage of cells positive for bound antibody.
(§2) Isoform 2 of hu-CD96 (DNA construct: Origene, catalog #RC221005) was expressed on a single-cell-clone-derived CHO stable cell line. Binding of the anti-CD96 antibodies to the CHO cells were determined as described above with isoform 1 of hu-CD96.
For orientation: Flow cytometry measures light scatter and fluorescence of single cells or particles in a stream.

Experiment [2] concerns the target T1, hu-CD96 isoform 2 on CHO cells. The experiment in a line: FACS, % positive curve. On the procedure:
as §1, §2

Experiment [3] shares this target. Briefly: FACS, Ab 10 nM. On the procedure: as §1, §2
Experiment [4] deals with T2, cynomolgus monkey CD96 on cynomolgus monkey PBMCs (cynomolgus monkey, UniProt A0A2K5TWV6 22-569).
T2 construct: whole, on cells
T2 sequence: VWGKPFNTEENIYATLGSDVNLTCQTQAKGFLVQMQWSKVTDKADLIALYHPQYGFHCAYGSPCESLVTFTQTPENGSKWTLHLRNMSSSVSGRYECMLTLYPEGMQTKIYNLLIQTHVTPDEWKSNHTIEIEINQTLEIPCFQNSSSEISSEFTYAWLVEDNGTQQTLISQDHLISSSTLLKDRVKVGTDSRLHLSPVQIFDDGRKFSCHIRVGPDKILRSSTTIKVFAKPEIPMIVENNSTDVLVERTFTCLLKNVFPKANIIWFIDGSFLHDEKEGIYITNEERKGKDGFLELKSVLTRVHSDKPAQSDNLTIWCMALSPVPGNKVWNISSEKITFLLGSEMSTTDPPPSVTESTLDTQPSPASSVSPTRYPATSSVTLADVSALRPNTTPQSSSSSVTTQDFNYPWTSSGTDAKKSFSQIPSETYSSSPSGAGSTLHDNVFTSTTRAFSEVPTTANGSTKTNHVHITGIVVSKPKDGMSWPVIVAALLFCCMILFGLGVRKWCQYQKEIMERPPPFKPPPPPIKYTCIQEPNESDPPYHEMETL
Briefly: FACS, Ab 16 nM. The procedure:
The ability of the anti-CD96 antibodies to bind primary immune cells from human and cynomolgus monkey with lower level of receptor expression was measured. Human PBMCs (StemCell Technologies, catalog #70025) and cynomolgus monkey PBMCs (Primate Biologicals, catalog #CM-MC) were incubated with human TruStain FcX (Biolegend, catalog #422302) for 10 minutes at 4° C., followed by incubation with an anti-CD96 antibody for 20 minutes at 4° C. Cells were washed and the anti-CD96 antibody binding was detected by incubation with anti-mouse IgG-PE (Thermo Fisher, catalog #M30204) or anti-human IgG (Fab) 2-PE (Thermo Fisher, catalog #H10104) for 20 minutes at 4° C. Cells were washed, and immune subtypes were labeled with anti-CD3 (BD, catalog #557705), anti-CD4 (Biolegend, catalog #317424) and anti-CD8 (BD, catalog #557760) for 20 minutes at 4° C. Cell binding was analyzed by flow cytometry with a CytoFLEX (Beckman Coulter). Binding curves were calculated as a percentage of cells positive for bound antibody in the cell type of interest.

Experiment [5] has as its target T1, hu-CD96 isoform 2 on CHO cells. The experiment in a line: FACS, CD155-Fc-FLAG 10 nM, Ab 100 nM. The procedure:
CHO cells stably expressing isoform 2 of hu-CD96 (Origene, catalog #RC221005) were incubated with anti-CD96 antibodies for 20 minutes at 4° C. The cells were washed, and then incubated with 10 nM human CD155-Fc-FLAG for 30 minutes at 4° C. Cells were washed, and then human CD155-Fc-FLAG binding was detected by incubation with anti-FLAG-APC (Columbia Biosciences, catalog #D3-1718-1MG) for 20 minutes at 4° C. Cell binding was analyzed by flow cytometry with a CytoFLEX (Beckman Coulter). CD155 binding is represented as median fluorescence intensity (MedFI).
As shown in Table 20 (below), the anti-CD96 antibodies, mAb1.v7.NGS8, mAb1.v7.NGS9, mAb1.v7.NGS10, mAb1.v7.NGS11, and h10G1 inhibited soluble hu-CD155 binding to CD96-expressing CHO cells dose-dependently and potently. The antibody NK92.39 (Fuchs et al., 2004; Biolegend catalog #338405) inhibited receptor binding similarly.

B1: 9H4, purified hybridoma antibody (antibody, V domains shown)
VH: EVQLLETGGGLVKSGGSLKLSCAASGFTFSDYYMYWVRQTPEKRLEWVAAISDDGTYTYYPDSVKGRFTISRDNANNYLYLQMSSLKSEDTAIYYCAKAGSYDYFDVWGAGTTVTVSS
VL: DIVLTQSPASLAVSLGQRAIISCKASQSVTFADTGLMHWYQQKPGQQPKLLIYRASNLEVGVPTRFSGSGSGTDFTLNIHPVEEEDVATYYCQQSREYPWTFGGGTKLEIK
notes: murine hybridoma IgG
The EC50 is the concentration needed to bring the measured effect to its halfway point. Regarding B1, the “% positive” value in experiment [1] amounted to 44.2%; in experiment [3], 46.1%. In experiment [2], this molecule displayed an EC50 of 380 pM.

B2: 10G1 (clone 10G1.3G8), purified hybridoma antibody (antibody, V domains shown)
VH: QIQLVQSGPELKKPGETVKISCKASGYPFTTYGMSWVKQAPGKGLKWMGWINTDSGVPTYADDFKGRFAFSLETSANTAYLQINSLKNEDAATYFCARNIYYGWGNFDYWGQGTILTVSS
VL: DILMTQSPTTLSVTPGETVSLSCRASQDIYRNLHWYQQKSQGTPRLLIKHASDSISGIPSRFTGSGSGTDFTLSINSVKPEDEGIYYCLQGYSMPYTFGGGTKLEIK
notes: murine hybridoma IgG
As to B2, the “% positive” value in experiment [1] was found to be 34.9%; in experiment [3], 39.2%. In addition, the EC50 in experiment [2] stood at 230 pM.

B3: 7E5, purified hybridoma antibody (antibody, V domains shown)
VH: QVQLKESGPGLVAPSQSLSIICTVSGFSLTNYGIHWIRQPPGKGLEWLGIIWAGGSTNYNSALMSRLTISKDNSKSQVFLKMNSLQTNDTAIYYCARVSMMGFAYWGQGTLVTVSA
VL: QAVVTQESALTTSPGETVTLTCRSSTGAVTTSNYANWVQEKPDHLFTGLIGGTNNRAPGVPARFSGSLIGDKAALTITGAQTEDEAIYFCSLWYGSHWVFGGGTKLTVL
notes: murine hybridoma IgG
Consider B3, for which the “% positive” value turned out to be 53.3% in experiment [1] and 56.1% in experiment [3]. A half-maximal effect in experiment [2] (EC50) was put at 110 pM.

B4: h10G1 IgG (humanized 10G1) (antibody, V domains shown)
VH: EIQLVQSGSELKKPGASVKVSCKASGYPFTTYGMSWVRQAPGQGLEWMGWINTDSGVPTYADDFKGRFVFSLDTSVSTAYLQISSLKAEDTAVYFCARNIYYGWGNFDYWGQGTLVTVSS
VL: EIVMTQSPDFQSVTPKEKVTITCRASQDIYRNLHWYQQKPDQTPKLLIKHASDSISGIPSRFSGSGSGTDFTLTINSLEAEDAAAYYCLQGYSMPYTFGGGTKVEIKG
notes: human IgG1 N297G
B4: the “% positive” value in experiment [4] is 66.1%. Moreover, the “CD155-Fc binding (MedFI)” value in experiment [5] is 5120 MedFI.

B5: mAb1.v7 IgG (humanized 12F8) (antibody, V domains shown)
VH: EVQLVQSGAEVKKPGASVKVSCKASGFTFTNNWMHWVRQAPGQGLEWIGMIHPNSGITNINEKFKNRVTMTTDTSTSTAYMELRSLRSEDTAVYYCRSDGTYEGYFDYWGQGTLVTVSS
VL: DIQLTQSPSSLSASVGDRVTITCKASQNVGTAIVWYQQKPGKAPKVLIYSASTRYTGVPSRFSGSGSGTDFTLTISSLQPEDFATYYCQQYSSSPLTFGQGTKVEIKG
notes: human IgG1 N297G
On to B5, for which the “% positive” value came to 42.4% in experiment [1] and 44.8% in experiment [3]. This molecule also had an EC50 in experiment [2] of 520 pM.

B6: mAb1.v7.NGS11 IgG (antibody, V domains shown)
VH: EVQLVQSGAEVKKPGASVKVSCKASGFTFTNNFMHWVRQAPGQGLEWIGFIHANSGITNINEKFKNRVTMTTDTSTSTAYMELRSLRSEDTAVYYCRSDGVYEGYFDYWGQGTLVTVSS
VL: DIQLTQSPSSLSASVGDRVTITCKASQNVGTAIVWYQQKPGKAPKVLIYSASTRYTGVPSRFSGSGSGTDFTLTISSLQPEDFATYYCQQYSSSPLTFGQGTKVEIKG
notes: human IgG1 N297G
For the molecule B6, the “% positive” value in experiment [4] is 80.8%. In addition, in experiment [5], the “CD155-Fc binding (MedFI)” value amounted to 4210 MedFI.

B7: mAb1.v7.NGS9 IgG (antibody, V domains shown)
VH: EVQLVQSGAEVKKPGASVKVSCKASGFTFTNNFMHWVRQAPGQGLEWIGMIHANSGITNINEKFKNRVTMTTDTSTSTAYMELRSLRSEDTAVYYCRSDGVYEGYFDYWGQGTLVTVSS
VL: DIQLTQSPSSLSASVGDRVTITCKASQNVGTAIVWYQQKPGKAPKVLIYSASTRYTGVPSRFSGSGSGTDFTLTISSLQPEDFATYYCQQYSSSPLTFGQGTKVEIKG
notes: human IgG1 N297G
As to B7, in experiment [4], the “% positive” value was 76.1%. Besides, the “CD155-Fc binding (MedFI)” value in experiment [5] turned out to be 4140 MedFI.

B8: mAb1.v7.NGS10 IgG (antibody, V domains shown)
VH: EVQLVQSGAEVKKPGASVKVSCKASGFTFTNNFMHWVRQAPGQGLEWIGFIHANSGITNINEKFKNRVTMTTDTSTSTAYMELRSLRSEDTAVYYCRSDGIYEGYFDYWGQGTLVTVSS
VL: DIQLTQSPSSLSASVGDRVTITCKASQNVGTAIVWYQQKPGKAPKVLIYSASTRYTGVPSRFSGSGSGTDFTLTISSLQPEDFATYYCQQYSSSPLTFGQGTKVEIKG
notes: human IgG1 N297G
As to B8, the “% positive” value in experiment [4] came to 78.5%. The “CD155-Fc binding (MedFI)” value in experiment [5] is 5110 MedFI.
